# According to article PMC10296332, “Vertically-Ordered Mesoporous Silica Film Based Electrochemical Aptasensor for Highly Sensitive Detection of Alpha-Fetoprotein in Human Serum”:
# T1: alpha-fetoprotein (AFP) (UniProt P02771 19-609)
# T1 sequence: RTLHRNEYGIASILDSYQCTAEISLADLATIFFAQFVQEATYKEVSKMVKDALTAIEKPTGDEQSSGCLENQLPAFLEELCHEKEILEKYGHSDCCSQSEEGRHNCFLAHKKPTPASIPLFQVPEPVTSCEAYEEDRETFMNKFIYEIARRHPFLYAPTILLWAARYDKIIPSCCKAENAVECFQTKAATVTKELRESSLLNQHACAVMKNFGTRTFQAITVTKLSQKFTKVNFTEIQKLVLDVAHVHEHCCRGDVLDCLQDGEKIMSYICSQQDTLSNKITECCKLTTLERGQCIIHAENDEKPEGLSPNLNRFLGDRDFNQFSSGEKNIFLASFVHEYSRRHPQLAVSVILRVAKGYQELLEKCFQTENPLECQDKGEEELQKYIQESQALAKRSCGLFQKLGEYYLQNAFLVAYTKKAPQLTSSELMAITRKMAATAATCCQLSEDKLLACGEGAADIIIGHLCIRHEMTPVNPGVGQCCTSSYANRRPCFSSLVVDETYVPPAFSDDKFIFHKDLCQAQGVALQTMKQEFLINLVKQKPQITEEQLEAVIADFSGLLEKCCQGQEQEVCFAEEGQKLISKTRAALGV
# B1: AFP aptamer (ssDNA)
# DNA: GTGACGCTCCTAACGCTGACTCAGGTGCAGTTCTCGACTCGGTCTTGATGTGGGTCCTGTCCGTCCGAACCAATC
# modifications: 5'-NH2, coupled to GPTMS epoxy groups on mesoporous silica film
# Target: T1, alpha-fetoprotein (AFP)
# Assay: electrochemical aptasensor (DPV, CV, EIS; Fe(CN)6 3-/4- probe); immobilized aptamer, BSA-blocked; linear 1 pg/mL-1 ug/mL, LOD 0.31 pg/mL (not a Kd); AFP incubated 1 h at 4 C on aptamer electrode, rinsed with 0.01 M PBS (sodium phosphate) pH 7.4; read-out in 2.5 mM K3/K4[Fe(CN)6], 0.1 M KCl
# Details: protein: commercial
binder,measurement,value
B1,binding result,binds
